From US20100233758A1

Biological target: glycoprotein D of HSV-1 KOS/tk12 (wild type HSV-1 KOS carrying a lacZ reporter gene) (herpes simplex virus 1 (HSV-1 KOS))
Test: cell-based or functional assay

recombinant sHveA102 protein (receptor) gave a percentage of cells infected with the virus (X-gal staining) of 70%.
